Source: IntAct's records for PubMed 31515488

B1: Four and a half LIM domains protein 2 (Homo sapiens), Q14192 (parent)
chain: MTERFDCHHCNESLFGKKYILREESPYCVVCFETLFANTCEECGKPIGCDCKDLSYKDRHWHEACFHCSQCRNSLVDKPFAAKEDQLLCTDCYSNEYSSKCQECKKTIMPGTRKMEYKGSSWHETCFICHRCQQPIGTKSFIPKDNQNFCVPCYEKQHAMQCVQCKKPITTGGVTYREQPWHKECFVCTACRKQLSGQRFTARDDFAYCLNCFCDLYAKKCAGCTNPISGLGGTKYISFEERQWHNDCFNCKKCSLSLVGRGFLTERDDILCPDCGKDI
partner: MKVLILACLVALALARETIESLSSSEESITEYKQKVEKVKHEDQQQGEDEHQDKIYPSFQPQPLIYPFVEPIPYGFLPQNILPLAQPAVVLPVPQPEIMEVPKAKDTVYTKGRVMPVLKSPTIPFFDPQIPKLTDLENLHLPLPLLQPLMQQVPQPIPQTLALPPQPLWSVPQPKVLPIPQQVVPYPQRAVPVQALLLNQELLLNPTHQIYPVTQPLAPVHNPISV
B2: Microtubule-associated tumor suppressor candidate 2 (Homo sapiens), Q5JR59-3 (parent)
chain: MGHCCCKPYNCLQCLDKTNESALVKEKELSIELANIRDEVAFHTAKCEKLQKEKEELERRFEDEVKRLGWQQQAELQELEERLQLQFEAEMARLQEEHGDQLLSIRCQHQEQVEDLTASHDAALLEMENNHTVAITILQDDHDHKVQELMSTHELEKKELEENFEKLRLSLQDQVDTLTFQSQSLRDRARRFEEALRKNTEEQLEIALAPYQHLEEDMKSLKQVLEMKNQQIHEQEKKILELEKLAEKNIILEEKIQVLQQQNEDLKARIDQNTVVTRQLSEENANLQEYVEKETQEKKRLSRTNEELLWKLQTGDPTSPIKLSPTSPVYRGSSSGPSSPARVSTTPR
partner: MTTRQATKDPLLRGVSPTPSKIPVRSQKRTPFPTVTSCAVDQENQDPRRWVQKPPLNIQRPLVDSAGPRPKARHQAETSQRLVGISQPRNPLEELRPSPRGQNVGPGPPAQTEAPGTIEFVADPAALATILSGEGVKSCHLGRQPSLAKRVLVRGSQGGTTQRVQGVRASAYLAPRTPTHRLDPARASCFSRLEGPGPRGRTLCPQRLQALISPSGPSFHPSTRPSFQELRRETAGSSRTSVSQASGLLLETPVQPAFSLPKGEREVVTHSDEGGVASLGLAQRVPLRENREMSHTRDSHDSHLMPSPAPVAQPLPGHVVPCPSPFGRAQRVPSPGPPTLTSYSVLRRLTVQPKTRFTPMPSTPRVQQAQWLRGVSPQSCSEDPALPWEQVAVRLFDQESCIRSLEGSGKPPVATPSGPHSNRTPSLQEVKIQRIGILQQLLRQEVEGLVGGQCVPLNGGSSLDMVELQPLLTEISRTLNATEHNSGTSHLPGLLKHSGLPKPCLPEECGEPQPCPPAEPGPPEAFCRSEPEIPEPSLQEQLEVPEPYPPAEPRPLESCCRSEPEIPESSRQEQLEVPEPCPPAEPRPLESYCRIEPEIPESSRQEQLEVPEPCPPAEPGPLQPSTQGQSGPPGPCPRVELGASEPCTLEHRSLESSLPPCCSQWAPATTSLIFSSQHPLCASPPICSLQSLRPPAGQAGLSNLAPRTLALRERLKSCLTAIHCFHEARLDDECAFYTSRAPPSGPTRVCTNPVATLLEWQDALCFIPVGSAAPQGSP
B3: mRNA-decapping enzyme 1A (Homo sapiens), Q9NPI6 (parent)
chain: MEALSRAGQEMSLAALKQHDPYITSIADLTGQVALYTFCPKANQWEKTDIEGTLFVYRRSASPYHGFTIVNRLNMHNLVEPVNKDLEFQLHEPFLLYRNASLSIYSIWFYDKNDCHRIAKLMADVVEEETRRSQQAARDKQSPSQANGCSDHRPIDILEMLSRAKDEYERNQMGDSNISSPGLQPSTQLSNLGSTETLEEMPSGSQDKSAPSGHKHLTVEELFGTSLPKEQPAVVGLDSEEMERLPGDASQKEPNSFLPFPFEQLGGAPQSETLGVPSAAHHSVQPEITTPVLITPASITQSNEKHAPTYTIPLSPVLSPTLPAEAPTAQVPPSLPRNSTMMQAVKTTPRQRSPLLNQPVPELSHASLIANQSPFRAPLNVTNTAGTSLPSVDLLQKLRLTPQHDQIQTQPLGKGAMVASFSPAAGQLATPESFIEPPSKTAAARVAASASLSNMVLAPLQSMQQNQDPEVFVQPKVLSSAIPVAGAPLVTATTTAVSSVLLAPSVFQQTVTRSSDLERKASSPSPLTIGTPESQRKPSIILSKSQLQDTLIHLIKNDSSFLSTLHEVYLQVLTKNKDNHNL
B4: Endothelial transcription factor GATA-2 (Homo sapiens), P23769 (parent)
chain: MEVAPEQPRWMAHPAVLNAQHPDSHHPGLAHNYMEPAQLLPPDEVDVFFNHLDSQGNPYYANPAHARARVSYSPAHARLTGGQMCRPHLLHSPGLPWLDGGKAALSAAAAHHHNPWTVSPFSKTPLHPSAAGGPGGPLSVYPGAGGGSGGGSGSSVASLTPTAAHSGSHLFGFPPTPPKEVSPDPSTTGAASPASSSAGGSAARGEDKDGVKYQVSLTESMKMESGSPLRPGLATMGTQPATHHPIPTYPSYVPAAAHDYSSGLFHPGGFLGGPASSFTPKQRSKARSCSEGRECVNCGATATPLWRRDGTGHYLCNACGLYHKMNGQNRPLIKPKRRLSAARRAGTCCANCQTTTTTLWRRNANGDPVCNACGLYYKLHNVNRPLTMKKEGIQTRNRKMSNKSKKSKKGAECFEELSKCMQEKSSPFSAAALAGHMAPVGHLPPFSHSGHILPTPTPIHPSSSLSFGHPHPSSMVTAMG
partner: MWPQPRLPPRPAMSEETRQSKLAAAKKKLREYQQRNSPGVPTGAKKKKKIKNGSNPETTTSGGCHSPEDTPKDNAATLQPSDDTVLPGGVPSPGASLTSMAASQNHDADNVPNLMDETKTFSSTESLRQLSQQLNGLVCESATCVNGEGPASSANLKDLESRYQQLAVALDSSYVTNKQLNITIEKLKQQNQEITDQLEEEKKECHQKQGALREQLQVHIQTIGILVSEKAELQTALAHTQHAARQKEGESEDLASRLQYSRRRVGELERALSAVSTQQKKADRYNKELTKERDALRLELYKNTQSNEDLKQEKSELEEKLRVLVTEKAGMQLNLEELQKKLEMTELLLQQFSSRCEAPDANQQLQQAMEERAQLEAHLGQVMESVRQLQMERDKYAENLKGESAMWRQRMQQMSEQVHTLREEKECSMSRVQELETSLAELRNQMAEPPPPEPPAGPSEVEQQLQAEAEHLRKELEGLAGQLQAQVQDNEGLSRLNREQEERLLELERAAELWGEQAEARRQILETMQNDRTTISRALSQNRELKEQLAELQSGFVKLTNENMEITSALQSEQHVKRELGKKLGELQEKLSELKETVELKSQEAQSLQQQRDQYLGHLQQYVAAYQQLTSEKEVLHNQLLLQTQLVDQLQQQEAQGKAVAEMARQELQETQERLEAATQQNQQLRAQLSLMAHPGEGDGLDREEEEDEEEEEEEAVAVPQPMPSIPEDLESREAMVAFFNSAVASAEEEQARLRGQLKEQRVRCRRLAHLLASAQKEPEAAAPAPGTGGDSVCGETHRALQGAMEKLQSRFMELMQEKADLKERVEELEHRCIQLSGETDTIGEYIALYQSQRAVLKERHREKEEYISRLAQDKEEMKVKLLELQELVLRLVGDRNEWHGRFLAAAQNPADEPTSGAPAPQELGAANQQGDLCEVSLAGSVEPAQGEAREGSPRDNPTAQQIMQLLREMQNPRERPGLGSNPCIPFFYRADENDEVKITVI
B5: NUT family member 2F (Homo sapiens), A1L443 (parent)
chain: MASNGAYPVLGPGVTVNPGTSLSVFTALPFATPAPGPAHRPPLVTAVVPPAGPLVLSAFPSTPLVAGQDGRGPSGAGASNVFVQMRTEVGPVKPPQAQTLILTQAPLVWQAPGTLCGGVMCPPPLLLAAAPGVPVTSAQVVGGTQACEGGWSHGLPLPPPPPAAQVAPIVSPGNARPWPQGAHGEGSLAPSQAKARPDDSCKPKSVYENFRLWQHYKPLARRHLPQSPDTEALSCFLIPVLRSLARRKPTMTLEEGLWQAMREWQHTSNFDRMIFYEMAEKFLEFEAEEEMQIQKSQWMKGPQSLPPPAPPRLEPRGPPAPEVVKQPVYLPSKDGPKAPTACLPPPRPQRPAETKAHLPPPRPQRPAETNAHLPPPRPQRPAETKVPEEIPPEVVQEYVDIMEELLGSHPGDTGEPEGQREKGKVEQPQEEDGITSDPGLLSYIDKLCSQEDFVTKVEAVIHPRFLEELLSPDPQMDFLALSQELEQEEGLTLAQLVEKRLLSLKEKGCGRAAPRHGTARLDSSPSEFAAGQEAAREVPDPQQRVSVETSPPQTAAQDPQGQGRVRTGMARSEDPAVLLGCQDSPRLKAVRPTSPPQDHRPTCPGLGTKDALGLPGESPVKESHGLAKGSSEETELPGMVYVVGSHHRLRPWRLSQSPVPSSGLLSPGGRGPQGALQSPSAQKRGLSPSPSPASKSKKRPLFGSPSPAEKTPHPGPGLRVSGEQSLAWGLGGPSQSQKRKGDPLASRRKKKRHCSQ
partner: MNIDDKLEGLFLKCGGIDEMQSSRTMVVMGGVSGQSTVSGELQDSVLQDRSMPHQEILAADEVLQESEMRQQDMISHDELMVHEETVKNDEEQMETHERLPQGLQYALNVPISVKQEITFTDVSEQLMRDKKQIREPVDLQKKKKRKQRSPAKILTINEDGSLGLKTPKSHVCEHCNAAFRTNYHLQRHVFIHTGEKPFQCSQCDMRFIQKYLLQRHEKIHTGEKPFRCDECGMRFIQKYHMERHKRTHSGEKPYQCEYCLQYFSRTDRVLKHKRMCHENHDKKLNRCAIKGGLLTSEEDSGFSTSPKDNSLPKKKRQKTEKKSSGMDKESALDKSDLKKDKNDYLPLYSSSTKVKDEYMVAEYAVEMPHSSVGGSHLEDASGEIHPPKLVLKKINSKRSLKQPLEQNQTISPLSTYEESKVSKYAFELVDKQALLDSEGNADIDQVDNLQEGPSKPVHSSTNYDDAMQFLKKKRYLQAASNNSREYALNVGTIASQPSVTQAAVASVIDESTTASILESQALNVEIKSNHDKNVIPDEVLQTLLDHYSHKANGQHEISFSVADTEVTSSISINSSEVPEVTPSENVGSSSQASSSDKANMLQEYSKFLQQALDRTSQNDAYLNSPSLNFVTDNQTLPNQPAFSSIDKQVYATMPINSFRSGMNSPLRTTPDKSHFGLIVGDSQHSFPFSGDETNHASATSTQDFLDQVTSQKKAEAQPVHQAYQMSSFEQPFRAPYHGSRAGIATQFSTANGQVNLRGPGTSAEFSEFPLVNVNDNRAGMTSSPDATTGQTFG

Variants of: B1
Details: with casb_human CSN2, P05814

effect of a mutation on the interaction	Variant
with no effect	MTERFDCHHCNESLFGKKYILREESPYCVVCFETLFANTCEECGKPIGCDCKDLSYKDRHWHEACFHCSQCRNSLVDKPFAAKEDQLLCTDCYSKEYSSKCQECKKTIMPGTRKMEYKGSSWHETCFICHRCQQPIGTKSFIPKDNQNFCVPCYEKQHAMQCVQCKKPITTGGVTYREQPWHKECFVCTACRKQLSGQRFTARDDFAYCLNCFCDLYAKKCAGCTNPISGLGGTKYISFEERQWHNDCFNCKKCSLSLVGRGFLTERDDILCPDCGKDI [N95K]
with no effect	MTERFDCHHCNESLFGKKYILREESPYCVVCFETLFSNTCEECGKPIGCDCKDLSYKDRHWHEACFHCSQCRNSLVDKPFAAKEDQLLCTDCYSNEYSSKCQECKKTIMPGTRKMEYKGSSWHETCFICHRCQQPIGTKSFIPKDNQNFCVPCYEKQHAMQCVQCKKPITTGGVTYREQPWHKECFVCTACRKQLSGQRFTARDDFAYCLNCFCDLYAKKCAGCTNPISGLGGTKYISFEERQWHNDCFNCKKCSLSLVGRGFLTERDDILCPDCGKDI [A37S]

Variants of: B2
Details: with troap_human TROAP

effect of a mutation on the interaction	Variant
with no effect	MGHCCCKPYNCLQCLDKTNESALVKEKELSIELANIRDEVAFHTAKCEKLQKEKEELERRFEDEVKRLGWQQQAELQELEERLQLQFEVEMARLQEEHGDQLLSIRCQHQEQVEDLTASHDAALLEMENNHTVAITILQDDHDHKVQELMSTHELEKKELEENFEKLRLSLQDQVDTLTFQSQSLRDRARRFEEALRKNTEEQLEIALAPYQHLEEDMKSLKQVLEMKNQQIHEQEKKILELEKLAEKNIILEEKIQVLQQQNEDLKARIDQNTVVTRQLSEENANLQEYVEKETQEKKRLSRTNEELLWKLQTGDPTSPIKLSPTSPVYRGSSSGPSSPARVSTTPR [A89V]

Variants of: B3
Details: with pnrc2_human PNRC2, Q9NPJ4
pnrc2_human PNRC2, Q9NPJ4, sequence (Q9NPJ4 whole entry): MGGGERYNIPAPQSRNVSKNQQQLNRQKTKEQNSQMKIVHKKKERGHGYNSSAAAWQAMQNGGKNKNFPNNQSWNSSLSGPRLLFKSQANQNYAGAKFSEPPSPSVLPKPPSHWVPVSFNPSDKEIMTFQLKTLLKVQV

effect of a mutation on the interaction	Variant
with no effect	MEALSRAGQEMSLAALKQHDPYITSIADLTGQVALYTFCPKANQWEKTDIEGTLFVYRRSASPYHGFTIVNRLNMHNLVEPVNKDLEFQLHEPFLLYRNASLSIYSIWFYDKNDCHRIAKLMADVVEEETRRSQQAARDKQSPSQANGCSDHRPIDILEMLSRAKDEYERNQMGDSNISSPGLQPSTQLSNLGSTETLEEMPSGSQDKSAPSGHKHLTVEELFGTSLPKEQPAVVGLDSEEMERLPGDASQKEPNSFLPFPFEQLGGAPQSETLGVPSAAHHSVQPEITTPVLITPGSITQSNEKHAPTYTIPLSPVLSPTLPAEAPTAQVPPSLPRNSTMMQAVKTTPRQRSPLLNQPVPELSHASLIANQSPFRAPLNVTNTAGTSLPSVDLLQKLRLTPQHDQIQTQPLGKGAMVASFSPAAGQLATPESFIEPPSKTAAARVAASASLSNMVLAPLQSMQQNQDPEVFVQPKVLSSAIPVAGAPLVTATTTAVSSVLLAPSVFQQTVTRSSDLERKASSPSPLTIGTPESQRKPSIILSKSQLQDTLIHLIKNDSSFLSTLHEVYLQVLTKNKDNHNL [A297G]

Variants of: B4
Details: with goga2_human GOLGA2, Q08379

effect of a mutation on the interaction	Variant
with no effect	A164T

Variants of: B5
Details: with zn148_human ZNF148, Q9UQR1

effect of a mutation on the interaction	Variant
with no effect	N370K
